The record followed here is patent publication US20190162720A1.

Assay [1] concerns the target C-Reactive protein (CRP, R&D Systems, Inc., 1707-CR-200, Mouse myeloma cell line) (UniProt P02741). The experiment in a line: SPR Biacore T200; CRP 1.0 µg/mL fed over antibody coupled covalently (EDC/s-NHS) to the SAM; corrected with anti-IL6 reference interface (Comparative Example 2).
The target is the same in assay [2]. The experiment in a line: SPR Biacore T200; CRP 1.0 µg/mL fed over antibody held through protein A/G (6) (Example 9).
Assay [3] has the same target. The experiment in a line: SPR Biacore T200; CRP 1.0 µg/mL fed over antibody held through protein A/G (8) (Example 8).
The target is the same in assay [4]. The experiment in a line: SPR Biacore T200; CRP 1.0 µg/mL fed over antibody held through protein A/G (6) (Example 15).
For assay [5] the target is unchanged. Description: SPR Biacore T200; CRP 1.0 µg/mL fed over antibody held through protein A/G (6) (Example 17).
For assay [6] the target is unchanged. The experiment in a line: SPR Biacore T200; CRP 1.0 µg/mL fed over antibody held through protein A/G (6) (Example 7).
Assay [7] shares this target. Description: SPR Biacore T200; CRP 1.0 µg/mL fed over antibody held through protein A/G (6) (Example 12).
Assay [8] has the same target. Description: SPR Biacore T200; CRP 1.0 µg/mL fed over antibody held through protein A/G (6) (Example 13).
Assay [9] has the same target. Description: SPR Biacore T200; CRP 1.0 µg/mL fed over antibody held through protein A/G (8) (Example 11).
Assay [10] has the same target. Description: SPR Biacore T200; CRP 1.0 µg/mL fed over antibody held through protein G (Example 6).
The target is the same in assay [11]. The experiment in a line: SPR Biacore T200; CRP 1.0 µg/mL fed over antibody held through protein A/G (6) (Example 14).
For assay [12] the target is unchanged. The experiment in a line: SPR Biacore T200; CRP 1.0 µg/mL fed over antibody held through protein A/G (6) (Example 10).
For assay [13] the target is unchanged. The experiment in a line: SPR Biacore T200; CRP 1.0 µg/mL fed over antibody held through protein A/G (6) (Example 16).
Assay [14] deals with anti-mPEG monoclonal antibody (Abcam plc., ab51257, Mouse monoclonal, Anti-Polyethylene glycol antibody [PEG-B-47]). The experiment in a line: SPR Biacore T200; protein A/G (eight domains) 119 µg/mL fed over anti-mPEG antibody on the mPEG chip (Example 11).
For assay [15], the target named is anti-biotin monoclonal antibody (Abcam plc., ab36406, Mouse monoclonal). The experiment in a line: SPR Biacore T200; protein A/G (eight domains) 30 µg/mL fed over anti-biotin monoclonal antibody on the chip (Example 8).
Assay [16] has as its target anti-CRP antibody (R&D Systems, Inc., Human C-Reactive protein Antibody, Monoclonal Mouse IgG2B, MAB17071-500). The experiment in a line: SPR Biacore T200; anti-CRP antibody 100 µg/mL fed over protein A/G (8) held on the first antibody (Example 8).
The target is the same in assay [17]. The experiment in a line: SPR Biacore T200; anti-CRP antibody 100 µg/mL fed over protein A/G (8) held on anti-mPEG antibody (Example 11).
The target is the same in assay [18]. The experiment in a line: SPR Biacore T200; anti-CRP antibody 100 µg/mL fed over protein G held on the first antibody (Example 6).
The target of assay [19] is anti-biotin monoclonal antibody (Abcam plc., ab36406, Mouse monoclonal). Description: SPR Biacore T200; protein G 40 µg/mL fed over anti-biotin monoclonal antibody on the chip (Example 6).

Chain of UniProt P02741 (P02741 19-224 limits assumed): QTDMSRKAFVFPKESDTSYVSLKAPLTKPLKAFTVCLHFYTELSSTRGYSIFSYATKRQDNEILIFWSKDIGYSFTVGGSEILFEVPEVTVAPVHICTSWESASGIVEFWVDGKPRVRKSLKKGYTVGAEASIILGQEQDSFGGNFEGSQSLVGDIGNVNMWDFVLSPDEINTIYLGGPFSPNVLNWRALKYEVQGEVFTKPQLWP

Take “anti-CRP antibody (R&D Systems, Inc., Human C-Reactive protein Antibody, Monoclonal Mouse IgG2B, MAB17071-500)”: the Amount of antigen bound in assay [1] is 284 RU; in [2] it was 408 RU; in assay [3] it was 745 RU; in assay [4], 519 RU; in [5] it was 481 RU; in [6], 422 RU. Moreover, the Amount of antigen bound in assay [7] was determined as 508 RU; in [8], 560 RU; in assay [9], 536 RU; in [10], 513 RU; in [11] it was 630 RU; in [12], 663 RU. For the same substance, in [13], the Amount of antigen bound was found to be 514 RU.
As to “protein A/G (BioVision Incorporated, 6502, Recombinant Protein A/G from E. coli, eight domains)”, the amount of the protein A/G immobilized was 820 RU in assay [14] and 868 RU in assay [15]. The Amount of second antibody immobilized was 3460 RU in assay [16] and 3210 RU in assay [17].
Consider “protein G (BioVision Incorporated, 6501, recombinant protein G, three domains)”, for which the Amount of second antibody immobilized in assay [18] came out at 2010 RU. The substance also gave an amount of the protein G immobilized in [19] of 841 RU.
